For experiment [1], the target named is T1, ExoI (Escherichia coli, UniProt P04995).
T1 construct: His-tag (cleaved yes); host or cells: E. coli BL21 (DE3) pLysS
Put plainly: biochemical. The format is binding, E. coli. As to the method: Triplicate measurements were performed using a Clariostar Plus Microplate Reader in 384-well plates for all fluorescence anisotropy (FA) experiments. The settings were 25 °C, excitation at 485 nm, emission at 510 nm, settling time of 0.2 s, and 200 flashes per well.
Competition fluorescence anisotropy experiments were carried out as follows: protein (0.5 μM either ExoI or RecO) was incubated with 50 nM F-wtSSB peptide and 0–500 μM unlabeled wtSSB (or a variant) peptide for 30 min at room temperature. For direct fluorescence anisotropy measurements, 16 µM ExoI and 7.5 µM RecO were used in the first well. After serial dilution, either 50 nM of F-mSSB or F-sSSB was added to the wells and then incubated for 30 min. Buffers used included 20 mM Tris-HCl (pH 8.0), 100 mM NaCl, 1 mM MgCl2, 1 mM 2-mercaptoethanol, 10% (v/v) glycerol, for ExoI and 20 mM Tris-HCl (pH 8.0), 200 mM NaCl, 1 mM 2-mercaptoethanol, 10% (v/v) glycerol, and 0.01% Triton-X 100 for RecO [37].
Fluorescence anisotropy values were normalized and are shown as bound fractions (BF, %). BF=r−rmin/λ(rmax−r)+r−rmin, I=2∗PG+S, r=S−PG/I, where r: anisotropy, I: total intensity, P: perpendicular intensity, S: parallel intensity, G: an instrument factor set to 1, BF: ligand fraction bound, and λ=λbound/λunbound=1 .
Competitive fluorescence anisotropy was analyzed in Origin Pro 9.5, and IC50 values were determined using the Logistic Nonlinear fit function and are shown as plots for each mutated position for each protein in Figures S4 and S6. EC50 values from direct fluorescence anisotropy titrations were plotted in Origin 9.5. Values were determined using the Logistics Nonlinear fit function.

The target in experiment [2] is T1, ExoI. Put plainly: Isothermal titration calorimetry with ExoI. The format is binding, E. coli. As for the experimental part: Isothermal titration calorimetry (ITC) experiments were performed using a MicroCal VP-ITC titration microcalorimeter. ExoI was dialyzed extensively against the indicated buffer and cleared through centrifugation at 14,000 rpm for 15 min at 4 °C. RecO was subjected to a quick buffer exchange using an Amicon Ultra ultrafiltration device (Sigma). Protein concentrations were determined after the buffer exchange procedure.
The raw data were integrated using NITPIC [39]. The binding parameters, association equilibrium constant (KA), binding enthalpy (ΔH), and binding entropy (ΔS) were obtained by fitting the titration curves to a model of A + B = C in SEDPHAT [40]. Stoichiometry was fixed to 1:1 and the incompetent fraction was fitted for the protein concentration.
On the technique in general: In ITC the heat of successive injections is recorded.

Experiment [3] deals with T2, E. coli Exonuclease I (E. coli, UniProt P04995 1-471).
T2 construct: Exonuclease I of E. coli, from plasmid pET14b-E. coli Exonuclease I (Addgene 104552); The His tag was cut off with thrombin only for the purified protein; also called ExoI; Exol; source: E. coli BL21 (DE3) pLysS, purified (Ni-NTA, heparin); also in cell lysate (pull-down)
T2 sequence: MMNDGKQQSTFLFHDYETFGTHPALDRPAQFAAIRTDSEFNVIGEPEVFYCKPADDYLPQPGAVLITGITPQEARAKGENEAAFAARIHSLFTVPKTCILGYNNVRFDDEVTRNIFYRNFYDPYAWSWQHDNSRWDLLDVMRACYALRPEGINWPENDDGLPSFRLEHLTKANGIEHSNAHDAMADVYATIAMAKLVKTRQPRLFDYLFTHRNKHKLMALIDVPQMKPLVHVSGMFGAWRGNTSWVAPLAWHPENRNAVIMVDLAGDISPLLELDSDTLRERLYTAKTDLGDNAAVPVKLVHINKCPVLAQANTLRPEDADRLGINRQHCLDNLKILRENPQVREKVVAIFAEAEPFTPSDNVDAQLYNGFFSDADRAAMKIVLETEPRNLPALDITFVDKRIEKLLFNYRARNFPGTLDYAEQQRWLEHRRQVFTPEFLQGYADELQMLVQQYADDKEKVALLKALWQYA
Put plainly: fluorescence polarisation; competition fluorescence anisotropy: 0.5 µM ExoI, 50 nM F-wtSSB tracer, 0–500 µM unlabeled peptide, 30 min at room temperature, read at 25 °C; 20 mM Tris-HCl pH 8.0, 100 mM NaCl, 1 mM MgCl2, 1 mM 2-mercaptoethanol, 10% glycerol. Conditions: both partners purified.

In experiment [4] the target is T2, E. coli Exonuclease I. The experiment is described as follows: ITC; peptide in the syringe titrated into ExoI in the cell; 20 mM Tris–HCl pH 8.0, 100 mM NaCl, 1 mM MgCl2, 4% glycerol, 1 mM β-mercaptoethanol; model A + B = C, stoichiometry fixed to 1:1, incompetent fraction fitted. The settings on record: both partners purified.
The target in experiment [5] is T3, Escherichia coli RecO (Escherichia coli, UniProt P0A7H3 1-242).
T3 construct: RecO of Escherichia coli, synthetic gene in pET28a+ with a TEV site at the 5' end; The His tag was cut off with TEV protease only for the purified protein; source: E. coli Rosetta, purified (Ni-NTA, heparin); also in cell lysate (pull-down); not shown: His tag, N-terminal, cleaved
T3 sequence: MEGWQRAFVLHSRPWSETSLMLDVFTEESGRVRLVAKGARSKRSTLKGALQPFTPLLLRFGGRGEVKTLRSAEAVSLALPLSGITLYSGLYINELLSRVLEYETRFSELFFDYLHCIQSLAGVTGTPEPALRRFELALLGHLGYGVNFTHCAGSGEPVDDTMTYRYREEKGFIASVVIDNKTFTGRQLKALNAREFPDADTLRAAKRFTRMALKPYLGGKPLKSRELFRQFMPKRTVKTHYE
The experiment is described as follows: fluorescence polarisation; direct fluorescence anisotropy: RecO serially diluted from 7.5 µM, 50 nM fluorescein-labelled peptide, 30 min, 25 °C; 20 mM Tris-HCl pH 8.0, 200 mM NaCl, 1 mM 2-mercaptoethanol, 10% glycerol, 0.01% Triton-X 100. The settings on record: both partners purified. In general terms: Polarisation of emitted light reports the rotation of a fluorescent probe.

Experiment [6] concerns the target T2, E. coli Exonuclease I. Put plainly: fluorescence polarisation; direct fluorescence anisotropy: ExoI serially diluted from 16 µM, 50 nM fluorescein-labelled peptide, 30 min, 25 °C; 20 mM Tris-HCl pH 8.0, 100 mM NaCl, 1 mM MgCl2, 1 mM 2-mercaptoethanol, 10% glycerol. Conditions: both partners purified.
Experiment [7] has as its target R2-sSSB with an N-terminal biotin tag, on Streptavidin DynaBeads (E. coli). The experiment is described as follows: affinity purification with mass spectrometry; pull-down: 1 µM biotin peptide on Streptavidin DynaBeads, 30 min with E. coli lysate holding 1 µM recombinant ExoI or RecO; on-pellet tryptic digestion, nanoLC-MS/MS.
Experiment [8] deals with T3, Escherichia coli RecO. The experiment is described as follows: fluorescence polarisation; competition fluorescence anisotropy: 0.5 µM RecO, 50 nM F-wtSSB tracer, 0–500 µM unlabeled peptide, 30 min at room temperature, read at 25 °C; 20 mM Tris-HCl pH 8.0, 200 mM NaCl, 1 mM 2-mercaptoethanol, 10% glycerol, 0.01% Triton-X 100. Conditions: both partners purified.
The target of experiment [9] is T3, Escherichia coli RecO. Put plainly: ITC; peptide in the syringe titrated into RecO in the cell; 50 mM HEPES pH 7.5, 50 mM NaCl, 25% glycerol, 1 mM TCEP; model A + B = C, stoichiometry fixed to 1:1, incompetent fraction fitted. The settings on record: both partners purified.
Experiment [10] has as its target T2, E. coli Exonuclease I. The experiment is described as follows: fluorescence polarisation; competition fluorescence anisotropy: 0.5 µM ExoI, 50 nM F-wtSSB tracer, 0–500 µM unlabeled peptide, 30 min at room temperature, read at 25 °C; 20 mM Tris-HCl pH 8.0, 100 mM NaCl, 1 mM MgCl2, 1 mM 2-mercaptoethanol, 10% glycerol. Conditions: both partners purified. This is another data set of the same source.

For experiment [11], the target named is T3, Escherichia coli RecO. The experiment is described as follows: fluorescence polarisation; competition fluorescence anisotropy: 0.5 µM RecO, 50 nM F-wtSSB tracer, 0–500 µM unlabeled peptide, 30 min at room temperature, read at 25 °C; 20 mM Tris-HCl pH 8.0, 200 mM NaCl, 1 mM 2-mercaptoethanol, 10% glycerol, 0.01% Triton-X 100. Conditions: both partners purified. This is another data set of the same source.

The target in experiment [12] is E1-sSSB with an N-terminal biotin tag, on Streptavidin DynaBeads (E. coli). The experiment is described as follows: affinity purification with mass spectrometry; pull-down: 1 µM biotin peptide on Streptavidin DynaBeads, 30 min with E. coli lysate holding 1 µM recombinant ExoI or RecO; on-pellet tryptic digestion, nanoLC-MS/MS.

Where a SMILES comes first, the peptide text is derived from it. Primed or numbered codes have the meaning given here. Where no end group is shown, it is not given here. [ ]: non-standard residue; d: D form. 5,6‑carboxyfluorescein = 5,6-carboxyfluorescein; Phe(4-CF3) = N[C@@H](Cc1ccc(C(F)(F)F)cc1)C(=O)O; Phe(3-Cl) = N[C@@H](Cc1cccc(Cl)c1)C(=O)O; Phe(4-Cl) = N[C@@H](Cc1ccc(Cl)cc1)C(=O)O; β3hD = NC(CC(=O)O)CC(=O)O; Nle = CCCC[C@H](N)C(=O)O; Pip′ = not defined here

T1 sequence (P04995 whole entry): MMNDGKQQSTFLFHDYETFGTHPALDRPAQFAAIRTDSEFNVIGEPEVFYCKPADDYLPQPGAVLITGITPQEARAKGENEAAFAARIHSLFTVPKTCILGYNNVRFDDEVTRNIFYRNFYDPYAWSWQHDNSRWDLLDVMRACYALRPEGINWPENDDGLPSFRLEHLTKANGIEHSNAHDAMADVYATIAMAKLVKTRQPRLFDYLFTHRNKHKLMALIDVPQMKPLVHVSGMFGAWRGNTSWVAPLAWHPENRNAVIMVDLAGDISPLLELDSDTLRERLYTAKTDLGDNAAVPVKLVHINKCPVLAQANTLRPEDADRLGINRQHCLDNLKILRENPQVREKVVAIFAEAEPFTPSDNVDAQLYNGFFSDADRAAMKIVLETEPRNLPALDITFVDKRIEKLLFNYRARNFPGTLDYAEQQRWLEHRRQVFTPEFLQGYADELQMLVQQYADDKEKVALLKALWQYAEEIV

For orientation: IC50 means the concentration that gives 50% inhibition. The low end stands for greater potency in that assay, the high end for weaker potency in that assay. The term Kd denotes the concentration at which binding is half-saturated. As for `CC[C@H](C)[C@H](NC(=O)[C@H](CC(=O)O)NC(=O)[C@H](CC(=O)O)NC(=O)[C@H](CC(=O)O)NC(=O)[C@H](Cc1ccc(C(F)(F)F)cc1)NC(=O)[C@H](CC(=O)O)NC(C)=O)C(=O)N1CCC[C@H]1C(=O)N[C@@H](Cc1ccc(C(F)(F)F)cc1)C(=O)O` [E2-sSSB-Ct] (Ac-D[Phe(4-CF3)]DDDIP[Phe(4-CF3)]-OH), at ExoI [1], the IC50 was 350 nM. Besides, at ExoI [2], binding was characterised by a dissociation constant (Kd) of 40 nM.

B1: E1-sSSB-Ct (Glu–4-CF3-Phe–Asp–β^3-Asp–Glu–Leu–Pip–4-CF3-Phe) (peptide)
chain: Ac-E[Phe(4-CF3)]D[β3hD]EL[Pip′][Phe(4-CF3)]
modifications: not fully specified; printed as E1-sSSB-Ct (Glu–4-CF3-Phe–Asp–β^3-Asp–Glu–Leu–Pip–4-CF3-Phe)
For orientation: stoichiometry N means a count of units in the complex or per binding partner. B1 gave an IC50 with E. coli Exonuclease I [3] of 170 nM. For the same molecule, in the experiment with E. coli Exonuclease I [4], the Kd came out at 20 nM, the dH is -17.4 kcal/mol and the “stoichiometry N” value came to 1.

B2: fluorescein-labeled wtSSB-Ct (peptide)
peptide: {5,6‑carboxyfluorescein}-GGDFDDDIPF
notes: two glycines between the 5,6-carboxyfluorescein and the peptide; also called F-SSB-Ct; F-wtSSB-Ct; source: synthetic peptide (solid phase, HPLC purified)
The term EC50 denotes the midpoint of the concentration-response curve. Low values mean a more potent agent, high ones a less potent agent. For B2, the EC50 turned out to be 370 ± 30 nM in the experiment with Escherichia coli RecO [5] and 350 ± 40 nM with E. coli Exonuclease I [6].

B3: F-Glu5 (fluorescein-labelled single mutant) (peptide)
peptide: {5,6‑carboxyfluorescein}-GGDFDDEIPF
notes: two glycines between the 5,6-carboxyfluorescein and the peptide; E. coli SSB-Ct, residues 171-178; numbers count on: the octapeptide (position 1 = SSB residue 171); One of Compounds 54-62 of the Supplementary Material; also called F-mSSB Glu5; source: synthetic peptide
As for B3, the EC50 was determined as 200 ± 20 nM with Escherichia coli RecO [5] and 110 ± 10 nM with E. coli Exonuclease I [6].

B4: Escherichia coli RecO (natural protein)
chain: T3 sequence
Regarding B4, the fold enrichment as compared to wtSSB-Ct in [7] worked out at 10 fold.

B5: wtSSB-Ct, octapeptide identical to the SSB C-terminal acidic tip (residues 171-178 of SSB) (peptide)
peptide: Ac-DFDDDIPF
notes: also called wild-type SSB-Ct; source: synthetic peptide (solid phase, HPLC purified)
B5 yielded an IC50 with Escherichia coli RecO [8] of 4660 ± 240 nM. Besides, in the experiment with Escherichia coli RecO [9], the Kd is 140 nM, the dH is -7.54 kcal/mol and the “stoichiometry N” value was 1. The same molecule gave an IC50 with E. coli Exonuclease I [10] of 4540 ± 340 nM. In addition, in the experiment with E. coli Exonuclease I [4], the Kd worked out at 3070 nM, the dH was -10.7 kcal/mol and the “stoichiometry N” value was found to be 0.959.

B6: mSSB-Ct Leu6 (unlabelled single mutant) (peptide)
peptide: Ac-DFDDDLPF
notes: E. coli SSB C-terminal tip (SSB-Ct), residues 171-178; numbers count on: the octapeptide (position 1 = SSB residue 171); also called isoleucine to leucine at position 6; source: synthetic peptide
B6 had an IC50 in the experiment with Escherichia coli RecO [11] of 3220 nM.
On the same count and under the same terms, under Ac-DFDDD[Nle]PF [mSSB-Ct nLe6 (unlabelled single mutant)] stands 2550 nM.

B7: E. coli Exonuclease I (enzyme)
chain: T2 sequence
For B7, the fold enrichment as compared to wtSSB-Ct in experiment [12] turned out to be 2 fold.
As for {5,6‑carboxyfluorescein}-DFDDD[Nle]PF [F-nLe6 (fluorescein-labelled single mutant)], the EC50 in the experiment with Escherichia coli RecO [5] and in the experiment with E. coli Exonuclease I [6] was 200 ± 10 nM throughout.

B8: R2-sSSB-Ct (Asp–4Cl-Phe–Asp–Asp–Asp–Ile–Pro–3Cl-Phe) (peptide)
peptide: Ac-D[Phe(4-Cl)]DDDIP[Phe(3-Cl)]
notes: SSB-Ct of E. coli SSB (residues 171-178), printed in three-letter code; F2 stands for 4Cl-Phe, F8 for 3Cl-Phe; numbers count on: the octapeptide (position 1 = SSB residue 171); source: synthetic peptide
With B8, the IC50 with Escherichia coli RecO [11] was found to be 590 nM. For the same molecule, in the experiment with Escherichia coli RecO [9], the Kd came out at 40 nM, the dH was -23.5 kcal/mol and the “stoichiometry N” value was 1.

Source of the values: paper PMC10143822, “Structural Adaptation of the Single-Stranded DNA-Binding Protein C-Terminal to DNA Metabolizing Partners Guides Inhibitor Design” (Pharmaceutics, 2023).
